Data taken from the supplement of paper PMC7877785.
± gives the uncertainty stated by the source.

Experiment: self-splicing fitness, log relative to wild type (ln ratio); higher = more splicing; Tetrahymena group I intron in knt gene, E. coli kanamycin selection, DiMSum; sequences stand for … in CUCUCU…GGAGGGAAAAGUUAUCAGGCAUGCACCUGGUAGCUAGUCUUUAAACCAAUAGAUUGCAUCGGUUUAAAAGGCAAGACCGUCAAAUUGCGGGAAAGGGGUCAACAGCCGUUCAGUACCAAGUCUCAGGGGAAACUUUGAGAUGGCCUUGCAAAGGGUAUGGUAAUAAGCUGACGGACAUGGUCCUAACCACGCAGCCAAGUCCUAAGUCAACAGAUCUUCUGUUGAUAUGGAUGCAGUUCACAGACUAAAUGUCGGUCGGGGAAGAUGUAUUCUUCUCAUAAGAUAUAGUCGGACCUCUCCUUAAUGGGAGCUAGCGGAUGAAGUGAUGCAACACUGGAGCCGCUGGGAACUAAUUUGUAUGCGAAAGUAUAUUGAUUAGUUUUGGAGUACUCGUGGUCG
Summary of the method: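 Colonies from six replicate transformations of E. coli BL21(DE3) were pooled and amplicon-sequenced on an Illumina HiSeq 2500. The library placed an intron with all eight P1ex-region nucleotides randomised inside the knt kanamycin-resistance gene on pET-22b(+), and cells grew overnight at 37°C or 30°C on LB agar with or without 25 μg/mL kanamycin (plus 100 μg/mL carbenicillin, 50 μM IPTG, 0.2% rhamnose). Fitness is the DiMSum error-weighted combination of wild-type-normalised replicate fold changes, kanamycin versus none.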

GCUGAGCAAUAUUACGUAGG
self-splicing fitness (ln) (30 °C): -1.82 ± 0.084 | self-splicing fitness (ln) (37 °C): -1.24 ± 0.12

CUUAAGCAAUAUUACGUCGG
self-splicing fitness (ln) (30 °C): -1.66 ± 0.097 | self-splicing fitness (ln) (37 °C): -0.424 ± 0.11

AAAUAGCAAUAUUACGUACC
self-splicing fitness (ln) (30 °C): -0.0895 ± 0.18 | self-splicing fitness (ln) (37 °C): -1.39 ± 0.24

CGCAAGCAAUAUUACGUCUU
self-splicing fitness (ln) (30 °C): -4.05 ± 0.26 | self-splicing fitness (ln) (37 °C): -3.12 ± 0.22

CCCGAGCAAUAUUACGGAGG
self-splicing fitness (ln) (30 °C): -3.84 ± 0.21 | self-splicing fitness (ln) (37 °C): -2.57 ± 0.19

GGAAAGCAAUAUUACGCAGG
self-splicing fitness (ln) (30 °C): -2.91 ± 0.15 | self-splicing fitness (ln) (37 °C): -2.71 ± 0.22

CAAGAGCAAUAUUACGGCGA
self-splicing fitness (ln) (30 °C): -3.9 ± 0.28 | self-splicing fitness (ln) (37 °C): -3.24 ± 0.18

AAGCAGCAAUAUUACGUCUG
self-splicing fitness (ln) (30 °C): -4.47 ± 0.37 | self-splicing fitness (ln) (37 °C): -1.72 ± 0.26

GCUUAGCAAUAUUACGAUGG
self-splicing fitness (ln) (30 °C): -1.54 ± 0.1 | self-splicing fitness (ln) (37 °C): -0.452 ± 0.097

GGAUAGCAAUAUUACGCGAG
self-splicing fitness (ln) (30 °C): -1.38 ± 0.15 | self-splicing fitness (ln) (37 °C): -1.16 ± 0.14

CGAUAGCAAUAUUACGUUAU
self-splicing fitness (ln) (30 °C): -3.93 ± 0.33 | self-splicing fitness (ln) (37 °C): -1.61 ± 0.18

ACCUAGCAAUAUUACGUGUG
self-splicing fitness (ln) (30 °C): -1.28 ± 0.057 | self-splicing fitness (ln) (37 °C): -0.808 ± 0.064

ACCGAGCAAUAUUACGCGAA
self-splicing fitness (ln) (30 °C): -2.33 ± 0.32 | self-splicing fitness (ln) (37 °C): -3.17 ± 0.4

UAUUAGCAAUAUUACGCUUG
self-splicing fitness (ln) (30 °C): -0.91 ± 0.11 | self-splicing fitness (ln) (37 °C): -0.336 ± 0.16

AAAAAGCAAUAUUACGUAGU
self-splicing fitness (ln) (30 °C): -2.1 ± 0.076 | self-splicing fitness (ln) (37 °C): -1.69 ± 0.091

UUAUAGCAAUAUUACGAUCU
self-splicing fitness (ln) (30 °C): -1.74 ± 0.32 | self-splicing fitness (ln) (37 °C): -1.17 ± 0.25

GAGGAGCAAUAUUACGCUCA
self-splicing fitness (ln) (30 °C): -0.973 ± 0.24 | self-splicing fitness (ln) (37 °C): -0.181 ± 0.27

CGGCAGCAAUAUUACGCUGC
self-splicing fitness (ln) (30 °C): -3.47 ± 0.32 | self-splicing fitness (ln) (37 °C): -1.5 ± 0.19

GAACAGCAAUAUUACGGGCC
self-splicing fitness (ln) (30 °C): -2.22 ± 0.14 | self-splicing fitness (ln) (37 °C): -1.09 ± 0.17

AAGGAGCAAUAUUACGGGCG
self-splicing fitness (ln) (30 °C): -4.03 ± 0.39 | self-splicing fitness (ln) (37 °C): -1.87 ± 0.31

UAGCAGCAAUAUUACGCCUG
self-splicing fitness (ln) (30 °C): -1.79 ± 0.11 | self-splicing fitness (ln) (37 °C): -0.602 ± 0.13

GCGUAGCAAUAUUACGCGCC
self-splicing fitness (ln) (30 °C): -2.51 ± 0.35 | self-splicing fitness (ln) (37 °C): -1.51 ± 0.45

GCUGAGCAAUAUUACGAGGG
self-splicing fitness (ln) (30 °C): -2.71 ± 0.16 | self-splicing fitness (ln) (37 °C): -2.45 ± 0.31

GUUUAGCAAUAUUACGCUCC
self-splicing fitness (ln) (30 °C): -1.82 ± 0.37 | self-splicing fitness (ln) (37 °C): 1.01 ± 0.34

CGAUAGCAAUAUUACGACGC
self-splicing fitness (ln) (30 °C): -2.34 ± 0.39 | self-splicing fitness (ln) (37 °C): 0.00994 ± 0.27

UAUAAGCAAUAUUACGCUUU
self-splicing fitness (ln) (30 °C): -4.08 ± 0.35 | self-splicing fitness (ln) (37 °C): -2.77 ± 0.3

GAAUAGCAAUAUUACGGGCU
self-splicing fitness (ln) (30 °C): -2.85 ± 0.16 | self-splicing fitness (ln) (37 °C): -1.19 ± 0.13

ACUAAGCAAUAUUACGCGUA
self-splicing fitness (ln) (30 °C): -1.2 ± 0.11 | self-splicing fitness (ln) (37 °C): -0.501 ± 0.13

GUCAAGCAAUAUUACGUGCC
self-splicing fitness (ln) (30 °C): -4.07 ± 0.2 | self-splicing fitness (ln) (37 °C): -2.73 ± 0.19

UCCUAGCAAUAUUACGUUGA
self-splicing fitness (ln) (30 °C): -0.805 ± 0.071 | self-splicing fitness (ln) (37 °C): 0.0396 ± 0.089

AGUGAGCAAUAUUACGGUGC
self-splicing fitness (ln) (30 °C): -3.77 ± 0.27 | self-splicing fitness (ln) (37 °C): -1.91 ± 0.22

UGUAAGCAAUAUUACGCAGA
self-splicing fitness (ln) (30 °C): -3.67 ± 0.42 | self-splicing fitness (ln) (37 °C): -1.72 ± 0.34

GCUAAGCAAUAUUACGGAAA
self-splicing fitness (ln) (30 °C): -1.48 ± 0.2 | self-splicing fitness (ln) (37 °C): -2.28 ± 0.24

CGUCAGCAAUAUUACGCAUA
self-splicing fitness (ln) (30 °C): -2.88 ± 0.32 | self-splicing fitness (ln) (37 °C): -2.59 ± 0.19

GCAUAGCAAUAUUACGAGUG
self-splicing fitness (ln) (30 °C): -2.77 ± 0.14 | self-splicing fitness (ln) (37 °C): -1.76 ± 0.11

GGCUAGCAAUAUUACGAGGG
self-splicing fitness (ln) (30 °C): -2.39 ± 0.21 | self-splicing fitness (ln) (37 °C): -2.27 ± 0.42

AAAUAGCAAUAUUACGUCAG
self-splicing fitness (ln) (30 °C): -2.52 ± 0.12 | self-splicing fitness (ln) (37 °C): -1.41 ± 0.11
